Data published in PMC5080355, “Interaction of the Nitrogen Regulatory Protein GlnB (PII) with Biotin Carboxyl Carrier Protein (BCCP) Controls Acetyl-CoA Levels in the Cyanobacterium Synechocystis sp. PCC 6803” (Frontiers in Microbiology, 2016).

Target: E. coli biotin carboxyl carrier protein (His-BCCP), subunit of acetyl-CoA carboxylase (E. coli) (UniProt P0ABD8)

GlnB (PII) from Synechococcus elongatus PCC7942, wild type, sequence (P0A3F4 whole entry): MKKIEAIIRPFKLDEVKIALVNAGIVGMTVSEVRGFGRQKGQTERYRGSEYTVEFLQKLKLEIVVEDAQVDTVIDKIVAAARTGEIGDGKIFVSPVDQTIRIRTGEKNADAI

Substance: GlnB (PII) from Synechococcus elongatus PCC7942, wild type (from UniProt P0A3F4 1-112) (natural protein)
- EC50 of inhibition of reconstituted E. coli ACC activity by increasing GlnB (coupled PK/LDH assay, 10 mM ATP): 310 nM
- maximum inhibition of reconstituted E. coli ACC activity (coupled PK/LDH assay, 10 mM ATP): 93%
